This note sets out measurements from paper PMC2652359.

In this assay the target is human factor Xa (human). Nature of the assay: functional titration of prothrombinase activity.
Chain of human factor Xa (human) (P00742 whole entry): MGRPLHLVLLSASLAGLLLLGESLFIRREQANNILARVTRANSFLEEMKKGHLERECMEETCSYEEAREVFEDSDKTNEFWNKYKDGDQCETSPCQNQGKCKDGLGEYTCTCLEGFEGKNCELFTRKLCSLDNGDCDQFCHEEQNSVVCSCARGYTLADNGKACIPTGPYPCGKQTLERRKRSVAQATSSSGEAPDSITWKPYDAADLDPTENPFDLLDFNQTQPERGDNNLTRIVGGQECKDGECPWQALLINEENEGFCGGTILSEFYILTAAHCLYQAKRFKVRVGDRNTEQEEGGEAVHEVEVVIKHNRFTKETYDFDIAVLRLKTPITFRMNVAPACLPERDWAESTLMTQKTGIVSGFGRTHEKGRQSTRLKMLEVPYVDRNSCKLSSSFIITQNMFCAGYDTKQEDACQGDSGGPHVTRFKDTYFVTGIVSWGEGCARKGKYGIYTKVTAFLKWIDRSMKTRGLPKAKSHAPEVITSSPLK

As to “recombinant wild-type human factor Va (from UniProt P12259 29-737; P12259 1574-2224) (natural protein)”, the Kd (in general, the concentration at which binding is half-saturated) was 0.24 nM.
